In patent US9644205B2, “Synthetic promoter for modulating gene expression” (The Regents of the University of California, priority 2012, dated 2017):

Tests used:
[1] = system: Beta TC-6 cells; test: CAT assay for promoter activity in Beta TC-6 cells; assay type: cell-based, mouse; settings: compared to human insulin promoter fragments
Method: FIG. 2 is a plot of the CAT assay for HIP activity in Beta TC-6 cells.
FIG. 3 is a plot of the CAT assay for HIP promoter construct expression activity BL promoter construct expression activity in Beta TC-6 cells.
(§1) In our methodological approach, activity and specificity of BLs were determined by CAT and mCherry assays in PDX-1+PC and HEK293 cell lines vs PDX-1—human pancreatic ductal epithelial (HPDE) cells. […] Cytotoxicity was determined by MTS assay. 1M PANC-1 cells were injected ip into 65 SCID mice; two weeks later, mice received BL1-vTK, RIP-vTK, CMV-vTK, or pVAX1 empty vector control (35 ug liposomal DNA/mouse/tail vein followed by two weeks of GCV (40 mg/kg, ip, bid; N=15/group). Glucose levels were measured on days 14 and 60 after treatment. Tumor volume was measured in each mouse. Statistical analysis was performed via paired T test; p<0.05=significant.

[2] = system: PANC-1; test: relative CAT expression in PANC-1 cells; assay type: cell-based, human; settings: PANC-1 (high PDX-1); compared to RIP and HIP 1400
Method: FIG. 4 is a plot of the assay of the relative CAT expression being driven by BL-1 promoter compared to RIP and HIP 1400 promoter constructs in human pancreas cancer cell line, PANC-1, which have high expression of PDX-1, and benign human pancreatic ductal epithelial cell line HPDE, which have no expression of PDX-1 and are a negative control cell line.
as §1

[3] = system: HPDE cells; test: CAT expression in HPDE cells (PDX-1 negative, PDX-1 co-transfection dose curve); assay type: cell-based, human
Method: FIG. 7 is a plot of the assay of the BL-CAT driving CAT expression in response to increasing doses of PDX-1 in human pancreatic ductal epithelial cells, which have very low expression of PDX-1.
FIG. 8 is a plot of another assay of the BL-CAT driving CAT expression in response to increasing doses of PDX-1 in human pancreatic ductal epithelial cells, which have very low expression of PDX-1.
as §1

[4] = system: MIA PaCa2; test: relative CAT expression in MIA PaCa2 vs MIA PaCa2 PDX-1 cells; assay type: cell-based, human; settings: MIA PaCa2 (very low PDX-1) vs MIA PaCa2 stably transfected with PDX-1; compared to RIP and three HIP fragments
Description: FIG. 5 is a plot of the assay of the relative CAT expression being driven by BL-1 promoter compared to RIP and three HIP fragments in human pancreas cancer cell line, MIA PaCa2, which have very low PDX-1 expression vs MIA PaCa2 cells stably transfected with PDX-1.

[5] = system: human embryonic kidney cell line 293 stably transfected with PDX-1 or mutated PDX-1 P47D; test: relative CAT expression in 293 PDX-1 vs 293 P47D cells; assay type: cell-based; settings: 293 stably transfected with PDX-1 or PDX-1 P47D; compared to RIP and three HIP fragments
Description: FIG. 6 is a plot of the assay of the relative CAT expression being driven by BL-1 promoter compared to RIP and three HIP fragments in human embryonic kidney cell line 293, (which have no PDX-1 expression), stably transfected with PDX-1 or mutated PDX-1 P47D.

[6] = system: PDX-1 stably expressing PC and HEK cells; test: CAT and mCherry reporter assays in PDX-1+ PC and HEK293 cell lines; assay type: cell-based, human
Method: as §1

B1: BL-1: synthetic 550 bp promoter, SEQ ID NO: 1; three repeated C2/E2/G2/A3/CRE1 and three repeated GG2/A2/C1/E1/A1 motifs (nucleic acid)
DNA: GACAGCAGCGCAAAGAGCCCCGCCCTGCAGCCTCCAGCTCTCCTGGTCTAATGTGGAAAGTGGCCCAGGTGAGGGCTTTGCTCTCCTGGAGACATTTGCCCCCAGCTGTGAGCAGGGACAGGTCTGGCCACCGGGCCCCTGGTTAAGACTCTAATGACCCGCTGGTCCCAGGGACAGGTCTGGCCACCGGGCCCCTGGTTAAGACTCTAATGACCCGCTGGTCCCAGGGACAGGTCTGGCCACCGGGCCCCTGGTTAAGACTCTAATGACCCGCTGGTCCGGAAATGGTCCGGAAATTGCAGCCTCAGCCCCCAGCCATCTGCCGACCCCCCCACCCCAGGCCCTAATGGGCGGAAATGGTCCGGAAATTGCAGCCTCAGCCCCCAGCCATCTGCCGACCCCCCCACCCCAGGCCCTAATGGGCGGAAATGGTCCGGAAATTGCAGCCTCAGCCCCCAGCCATCTGCCGACCCCCCCACCCCAGGCCCTAATGGGCGGTAGGGGAGATGGGCTCTGAGACTATAAAGCCAGCGGGGGCCCAGCAGCCCTC
expression of CAT [1]: equal to or better than human insulin promoter fragments
relative CAT expression [2]: to a far greater degree than HIP and RIP
CAT expression in response to increasing doses of PDX-1 ([3]; HPDE cells, co-transfection of PDX-1): dose dependent manner
CAT expression ([3]; PDX-1-negative cell lines): No CAT expression was detected
relative CAT expression [4]: more effective than RIP or HIP
relative CAT expression [5]: far more effective than RIP or HIP
activity of expressing reporter genes ([6]; among the BL promoters, CAT and mCherry assays): highest activity
CAT and mCherry reporter expression ([6]; vs CMV-driven expression): equal to CMV-driven expression
CAT and mCherry reporter expression ([6]; vs RIP-driven expression, p<0.05): significantly greater than RIP-driven expression
